{"source": "paper PMC3177959", "target": "M3 muscarinic acetylcholine receptor labeled at its N terminus with ECFP (human) (UniProt P20309)", "sequence (P20309 whole entry)": "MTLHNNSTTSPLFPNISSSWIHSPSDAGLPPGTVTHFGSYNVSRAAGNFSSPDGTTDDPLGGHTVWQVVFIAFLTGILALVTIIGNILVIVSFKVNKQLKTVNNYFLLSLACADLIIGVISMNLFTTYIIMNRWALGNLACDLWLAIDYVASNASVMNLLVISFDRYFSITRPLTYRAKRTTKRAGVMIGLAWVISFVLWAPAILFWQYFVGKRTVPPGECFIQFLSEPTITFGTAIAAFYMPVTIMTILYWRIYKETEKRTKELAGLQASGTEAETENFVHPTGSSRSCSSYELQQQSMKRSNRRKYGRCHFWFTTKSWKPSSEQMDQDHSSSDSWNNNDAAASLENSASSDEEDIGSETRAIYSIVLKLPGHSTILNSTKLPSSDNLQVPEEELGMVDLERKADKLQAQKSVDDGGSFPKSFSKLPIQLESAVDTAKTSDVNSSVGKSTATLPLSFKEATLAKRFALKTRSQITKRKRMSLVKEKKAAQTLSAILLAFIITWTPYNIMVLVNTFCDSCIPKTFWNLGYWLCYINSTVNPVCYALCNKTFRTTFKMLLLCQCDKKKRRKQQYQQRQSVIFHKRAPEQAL", "test": "FRAP of the mobile partner with the other partner immobilised", "data": [{"substance": "Gq heterotrimer: venus-labeled Gαq with unlabeled Gβ1 and Gγ2 (from UniProt P21279;P62873;P59768) (complex)", "values": [{"measurement": "unrecovered fraction five minutes after photobleaching", "result": 0.23}]}]}
